Reference: the DeepSol protein solubility set

Test: soluble on expression in E. coli; label from the status in PepcDB or PDB records
With “MIIEERKNHELNLESIDRDLRMENVRQSAEKLGWEHFARSVRRNLLEKRQTLDARTRLDVLGSLVFMKEHLPIDNDATIARKVQQLSEGLGEHCVFSTQNSGFSIRNPDVTIDIGVAEDQISTCKIGYFGQPLTDAPGALALMKNGEFSKLRDSITAILSSLPKEITLSEKNACKEAFRALDQLLIRDAADSSFTAINTGKYGFYAPRNELRSGRIYYVAEPVLIRLAEKEGKTKADASYLDLLPYIEISFFKHDKPSKLPVFTQTGEWSTFNDANVCICVRFNQGFLLSQQTIRKLSHIVPKSPLVRNYVNFYRYMTGRVGVKSNLKLLTQFPDEGDIQQQYQVDSKMLTKEDDVVAMEMYLSDFRDLSKLIETLRSEWKHASLWESILAICESSKGEQKEVNAVDMQLVLRRTEFFLQFDTDYGSMTMQIFEKSPSNYVVKTTSQITGESPSLDFDKMLTEKLNSTWSIPATLTFAITDLKCRINSVLNCVISFDSSSSSDKQHQNYWSISNNNTQLMQSAAQKSAAKCTKKKVTVLEVGPAIEPTQLVYTRENDEEFQGSLLSSFGEVDDYYVKTSTIGRTRPQPRPKREPNQLTSMDMMSAELDKSRHTMEGSMRDAQTSSFLDAARVRMKQSIGAAHAVGLASHQPPASPVAAAAAAPGGPMRHNSYPSGFEPPPSVAPYDFPADPSKKQRKQRAKKQPGEEPPAGRGKGGKKGRGAGAVGAAAAGGRKSAGGAGENPFGMDPMRPPMLQRSSSEQHNPNPHQMSQYQMQQYQQNQQFRMHQMQQQQQQQFQMQSPKNPLVPAYTDEDSDEECDPPPPPKPQVSTSSRMSSVPSHPPPPPQQLGNPMVGYPGMPLQSPNHLPLTPSPLSAPPKPFSPEQQHHFGMKMRETSYWKELERLETKPDVEKLKQQLSSSSSSSQAEASDPPSTSTEAQDPPKPSSSSAPPPPKKKLGLEAAISKIRGQQEQALQKQLQQQESVESELATPHPGSSGAPPLAPHQVNRARNLNDIFDDEADDSSPTADIKPSLQALQKPTDTSSQSTSSEPPPKKEPADEQPEREKEKLILKIPKMLKPVVDDRREDRKERDRDRDRDRDRDEDREKVRDKEDKAQREKDKKEKERERRRQRDRDRTEQKKSDREKEPSKKRKLEKKDEKEKDRREPERKKGKSDGKEYSKASTTSLIPTLSLKNFRIPKKDTVEEEKKDVKEEAPGPSSSTESKKEPPSAAPITRKESTTAPVAPAVQQQQQRKESFTALPSLPEQQQHHREPLLKKKPPLQPPPPPQMTGPPIGIYPGPPAPGNLPGSSRPSGNRKQPLPPPPPMIRGPPPDQMYRDRSGGGGGSMRGGFPPASHYHGGTSGVNKQVASYAQGLPPGMGPPVVKPHGNNYQASQWVRPPTHRDSSHSYHGMPSLGPPQLQREPPAPPPPQMIPLPKDPPVLREHPREHRAHRGGADDDGPDSPEEGTLRIDDE” the “soluble on expression in E. coli” value was “not soluble”. With “MIIEFLKKLLAGTPETVPAKETKRMTKVLVLYYSSYGHIETMAYAVAEGVESTGAEAVVKRVPELVPEEVAKSSHFKMDQPAPVATVDELAEYDAIIVGAGTRFGTVASQMRNFWDQTGGLWFSGKLVGKVGSAFTSSATQHGGQESTILGFIPTFLHHGMAVVGLPYAFQGQMGVDEIKGGSPYGASTITDGDGSRQPSAIELDAARYQGAHVAKLAAKLSA” the “soluble on expression in E. coli” value was “not soluble”. With “MIIIMAGGKSSRMGREKPVLKIAGKEMLLWVYEQAEAVGEVLVALSRHTPRTRELCLREGIEFVDTPGRGYVKDVQWLLREFGPFISLSSDIPFVKSSDIYSLLKEFDGKVSLTGVLPLEVVPKDLTPYSYMGYAIVGINGVAKEGEKFFVFSNPLLALNVNTPRELELAKRVAEIIRVRGIR” the “soluble on expression in E. coli” value was “soluble”. With “MIILNIPLFKGLTLEQIEDMKNKHCMTEKKYKKNSFIFRAGDIVHEIGIVLEGSINIEMIDMWDNKSILSNIDVGQIFAESYALCNEPMMVDAVATKDSTILMLNMRQIFAPINNSASWYNTFTYNLLVLSTRKNLTLSTRIFCTSSKSVRGRVLTYLSNQSIKHNNTEFQIPFNRQQMADYLNLDRSALSKELGKMQDEGIITFNKNRFKLNINYDSEF” the “soluble on expression in E. coli” value was “not soluble”. For “MIINNVKLVLENEVVNGSLEMQDGEIRAFAESQSRLPEAMDGEGGWLLPGLIELHTDNLDKFFTPRPKVDWPAHSAMSSHDALMVASGITTVLDAVAIGDVRDGGDRLENLEKMINAIEETQKRGVNRAEHRLHLRCELPHNTTLPLFEKLVQREPVTLVSLMDHSPGQRQFANREKYREYYQGKYSLTDAQMQQYEEEQLALAARWSQPNRESIAAMCRARQIALASHDDATHAHVAESHQLGSVIAEFPTTFEAAEASRKHGMNVLMGAPNIVRGGSHSGNVAASELAQLGLLDILSSDYYPASLLDAAFRVADDQSNRFTLPQAVKLVTKNPAQALNLQDRGVIGEGKRADLVLAHRKGNHIHIDHVWRQGKRVF”, the “soluble on expression in E. coli” value was “not soluble”. With “MIIPLVFLIGFAAAGNFGSSSSESCEDGNGGGRPRPGNGGGRPPGNGNGNGNGGGRPTNGGCDAGWRRFNRPNGGWCVRVFGARMTQADAQIQCQSYGATLSSLQNMEEALQINNMALSVIKANTGSVWIGAKRTTACLKQWLWTNGCGRQNSFAWTDGSATGVAGFVWDNLQPDNDELKQPCAVMLAARAAVTWGGKFWQPAMLDDNNCMFDLEGKHPRSVYGYVCGKNSRA” the “soluble on expression in E. coli” value was “not soluble”. For “MIKHLFIDLDDTLWDTYHNNKSSLEELYHTHAWDRYFDSFETFFSIYLPHNEALWSEYRYGQIDKPTLTLERFRRPFTGYLTLSDEQILAWNAEFLSITGRKTRLCPHALEVMEYLHRYYKVYILSNGFREIQHAKLTNSGLAPYIDRVILSEDAGINKPNKKIFDFALVKAKARKTESIMIGDSWEADIVGAANAGLASVWYNPNRHILPDDGVRAPMHIISSLSELMQIF”, the “soluble on expression in E. coli” value was “not soluble”. For “MIKIAIPTSKGGLEDKVHESLVRAETFTLVEVKDGKIERIEVVENPHKNEPYGAGSKVAIFLVNNGVNILLTPMDCPKGKAILEAGGVKIIKVKQGKSVKEVIEAFQSSSSGYSLQ”, the “soluble on expression in E. coli” value was “soluble”. With “MIKIPRGTQDILPEDSKKWRYIENQLDELMTFYNYKEIRTPIFESTDLFARGVGDSTDVVQKEMYTFKDKGDRSITLRPEGTAAVVRSYIEHKMQGNPNQPIKLYYNGPMFRYERKQKGRYRQFNQFGVEAIGAENPSVDAEVLAMVMHIYQSFGLKHLKLVINSVGDMASRKEYNEALVKHFEPVIHEFCSDCQSRLHTDPMRILDCKVDRDKEAIKTAPRITDFLNEESKAYYEQVKAYLDDLGIPYTEDPNLVRGLDYYTHTAFELMMDNPNYDGAITTLCGGGRYNGLLELLDGPSETGIGFALSIERLLLALEEEGIELDIEENLDLFIVTMGDQADRYAVKLLNHLRHNGIKADKDYLQRKIKGQMKQADRLGAKFTIVIGDQELENNKIDVKNMTTGESETIELDALVEYFKK” the “soluble on expression in E. coli” value was “soluble”. With “MIKLDMTMLDSFKEDPNLRKLLFSGHFGLEKENIRVTSDGKLALTPHPAIFGPKEDNPYIKTDFSESQIEMITPVTDSIDSVYEWLENLHNIVSLRSENELLWPSSNPPILPAEEDIPIAEYKTPDSPDRKYREHLAKGYGKKIQLLSGIHYNFSFPEALIDGLYANISLPEESKQDFKNRLYLKVAKYFMKNRWLLIYLTGASPVYLADFSKTKHEESLPDGSSALRDGISLRNSNAGYKNKEALFVDYNSFDAYISSISNYIEAGKIESMREFYNPIRLKNAHTDQTVESLAEHGVEYLEIRSIDLNPLEPNGISKDELDFIHLFLIKGLLSEDRELCANNQQLADENENNIALNGLAQPSIKNCDNEDIPLADAGLLELDKMSDFIKSLRPEDTKLRAIIEKQKERLLHPEKTIAAQVKQQVTKEGYVDFHLNQAKTYMEETEALAYKLIGAEDMELSTQIIWKDAIARGIKVDVLDRAENFLRFQKGDHIEYVKQASKTSKDNYVSVLMMENKVVTKLVLAEHDIRVPFGDSFSDQALALEAFSLFEDKQIVVKPKSTNYGWGISIFKNKFTLEDYQEALNIAFSYDSSVIIEEFIPGDEFRFLVINDKVEAVLKRVPANVTGDGIHTVRELVEEKNTDPLRGTDHLKPLEKIRTGPEETLMLSMQNLSWDSIPKAEEIIYLRENSNVSTGGDSIDYTEEMDDYFKEIAIRATQVLDAKICGVDIIVPRETIDRDKHAIIELNFNPAMHMHCFPYQGEQKKIGDKILDFLFD” the “soluble on expression in E. coli” value was “soluble”. In the case of “MIKLTEYIYLASEQPLSTGSITLNGLSKPTGNLLNKAFFFFINDFEGDPPGKFSYSNYLKTLNYQVCSMCSLPSDNQNIETPSAIALLGYIRNHFKNTCTTKLYILSALNGFENKPISKTVTRKLSDLSYKDLYYQEMKLLKIIR”, the “soluble on expression in E. coli” value is reported as “not soluble”. In the case of “MIKQVIQQLRVPDAGIENLQERRYWLQCERAYTYQPIYQTDGRLMAVELLTVVTHPDNPSRRIAPDRYFAELAVRHRIDVVKEQLHQLEQKADFFTRHHLLASVNVDGPTLIAMRRQPDILAAMERLPWLRFELVEHIRLPKDSSFASMCEFGPLWLDDFGTGMANFSALSEVRYDYIKVARELFVMLRQSPEGRNLFTLLLQLMNRYCRGVIVEGVETLEEWRDVQRSPAFAAQGYFLSRPVPLISLEEVILTL”, the “soluble on expression in E. coli” value is reported as “not soluble”. With “MIKTRDQSIFDEMFKRIQSLGFKVYDYKPMTEVPYPFVEMESTDAEYIPNKDDIKGSVELMLSVWGVQKKRKQVSDMASAIFSQALTVESSDVFRWSLNTRQSSIQMLDDTTTVTPLKRAIVTLRFNLR” the “soluble on expression in E. coli” value was “not soluble”. In the case of “MIKVLLLDVDGTLLSFETHKVSQSSIDALKKVHDSGIKIVIATGRAASDLHEIDAVPYDGVIALNGAECVLRDGSVIRKVAIPAQDFRKSMELAREFDFAVALELNEGVFVNRLTPTVEQIAGIVEHPVPPVVDIEEMFERKECCQLCFYFDEEAEQKVMPLLSGLSATRWHPLFADVNVAGTSKATGLSLFADYYRVKVSEIMACGDGGNDIPMLKAAGIGVAMGNASEKVQSVADFVTDTVDNSGLYKALKHFGVI”, the “soluble on expression in E. coli” value is reported as “not soluble”. In the case of “MILAQKQKQVIRLNLISTWRKLISSTKIPNWLSQTKIQSKYQTRGIYPGSFFQKTIFRKDGSMSVQRTLQKYMDDWKRISHFDFCLLQEDNSILVTTCDRRLPAESKLEEFRNSTALCLSNATCCLYKITEKNEQLLLIVWGSEDSVSTIGELAVCQIESILESYAEKNDKNAFMQKLLLGDYTDVEAFNRARKLHISSSARRAVFLVETRQSKDEHALATIKNIFSARTHDFITSIDNRGIIVVRELTSTETYDDLENIAHMLVDMLGTEAMTQAWVAYSNTANDLKDLSNAYKEARTALEIGKIFYAERNVFGYRTLGIGRLLYQLPVSICEMFIQEIFGDESLDSIDGETLAIIRTFFENNLNLSETSRQLYVHRNTLVYRFEKIQKRFGLDLRTFEDAMTFKLAMLVSRYLRYQNRT”, the “soluble on expression in E. coli” value is reported as “not soluble”. For “MILDADYITEDGKPVIRVFKKEKGEFKIDYDRDFEPYIYALLKDDSAIEDIKKITAERHGTTVRVTRAERVKKKFLGRPVEVWKLYFTHPQDVPAIRDKIREHPAVVDIYEYDIPFAKRYLIDRGLIPMEGDEELRMLAFDIETLYHEGEEFGEGPILMISYADEEGARVITWKNIDLPYVESVSTEKEMIKRFLKVIQEKDPDVLITYNGDNFDFAYLKKRSEMLGVKFILGRDGSEPKIQRMGDRFAVEVKGRIHFDLYPVIRRTINLPTYTLETVYEPVFGQPKEKVYAEEIARAWESGEGLERVARYSMEDAKATYELGKEFFPMEAQLSRLVGQSLWDVSRSSTGNLVEWFLLRKAYERNDVAPNKPDERELARRTESYAGGYVKEPEKGLWENIVYLDYKSLYPSIIITHNVSPDTLNREGCREYDVAPQVGHRFCKDFPGFIPSLLGDLLEERQKVKKKMKATVDPIERKLLDYRQRAIKILANSYYGYYAYANARWYCRECAESVTAWGRQYIETTMREIEEKFGFKVLYADTDGFFATIPGADAETVKNKAKEFLNYINPRLPGLLELEYEGFYRRGFFVTKKKYAVIDEEDKITTRGLEIVRRDWSEIAKETQARVLEAILKHGDVEEAVRIVKEVTEKLSRHEVPPEKLVIYEQITRDLRSYRATGPHVAVAKRLAARGIKIRPGTVISYIVLKGPGRVGDRAIPFDEFDPAKHRYDAEYYIENQVLPAVERILRAFGYRKEDLRYQKTKQAGLGAWLKPKT”, the “soluble on expression in E. coli” value was “soluble”.
